Data from patent US20230220056A1 (KOOKMIN UNIVERSITY INDUSTRY ACADEMY COOPERATION FOUNDATION, published 2023).

What was measured:
recombinant human GRP94 [1] = target: T1, recombinant human GRP94 (human, UniProt P14625 22-799, limits assumed); test: ELISA, 100 ng rhGRP94 coated per well, IgG 0-500 nM; no unit beside the value, concentration axis in nM and the dotted drop line meets it at about 0.5
T1 construct: also called rhGRP94; glucose-regulated protein 94
Method: (§1) Each well of 96-well plates was coated with 0.1 μg of recombinant human GRP94 (rhGRP94), blocked with 3% (w/v) bovine serum albumin (BSA) in phosphate buffered saline (PBS) for 2 hours at 37° C., and incubated with 100 μL of GRP94 targeting IgG (20 μg/mL) for 2 hours at 37° C. The plates were washed thrice with 0.05% PBS-T, and 100 μL of a 500:1 dilution of the secondary antibody anti-human Fc Ab (Sigma-Aldrich) was added to each well. Incubation at 37° C. for 1 hour was followed by three rounds of washing with 0.05% PBS-T. Then, 100 μL of 3,3′,5,5′-tetramethylbenzidine (1-step ultra TMB) substrate solution was added to each well. Finally, optical densities were measured at 450 nm using a microplate reader (Synergy H1, BioTek).
(§2) In this regard, each well of 96-well plates was coated with 100 ng of rhGRP94 and blocked with 3% (w/v) bovine serum albumin (BSA) in PBS at 37° C. for 2 hours. Next, the plates were incubated with a concentration gradient of 0 nM to 500 nM of each clone for the GRP94 IgGs at 37° C. for 2 hours. The use of a secondary antibody and the measurement of optical density were conducted as described for the ELISA.

recombinant human GRP94 [2] = target: T1, recombinant human GRP94; test: ELISA, 100 ng rhGRP94 coated per well, IgG 0-500 nM; no unit beside the value, concentration axis in nM and the dotted drop line meets it at about 1.2
Method: as §1, §2

recombinant human GRP94 [3] = target: T1, recombinant human GRP94; test: ELISA, 100 ng rhGRP94 coated per well, IgG 0-500 nM; no unit beside the value, concentration axis in nM and the dotted drop line meets it at about 0.1
Method: as §1, §2

recombinant human GRP94 [4] = target: T1, recombinant human GRP94; test: ELISA, 100 ng rhGRP94 coated per well, IgG 0-500 nM; no unit beside the value, concentration axis in nM and the dotted drop line meets it at about 0.15
Method: as §1, §2

T1 sequence (P14625 22-799 limits assumed): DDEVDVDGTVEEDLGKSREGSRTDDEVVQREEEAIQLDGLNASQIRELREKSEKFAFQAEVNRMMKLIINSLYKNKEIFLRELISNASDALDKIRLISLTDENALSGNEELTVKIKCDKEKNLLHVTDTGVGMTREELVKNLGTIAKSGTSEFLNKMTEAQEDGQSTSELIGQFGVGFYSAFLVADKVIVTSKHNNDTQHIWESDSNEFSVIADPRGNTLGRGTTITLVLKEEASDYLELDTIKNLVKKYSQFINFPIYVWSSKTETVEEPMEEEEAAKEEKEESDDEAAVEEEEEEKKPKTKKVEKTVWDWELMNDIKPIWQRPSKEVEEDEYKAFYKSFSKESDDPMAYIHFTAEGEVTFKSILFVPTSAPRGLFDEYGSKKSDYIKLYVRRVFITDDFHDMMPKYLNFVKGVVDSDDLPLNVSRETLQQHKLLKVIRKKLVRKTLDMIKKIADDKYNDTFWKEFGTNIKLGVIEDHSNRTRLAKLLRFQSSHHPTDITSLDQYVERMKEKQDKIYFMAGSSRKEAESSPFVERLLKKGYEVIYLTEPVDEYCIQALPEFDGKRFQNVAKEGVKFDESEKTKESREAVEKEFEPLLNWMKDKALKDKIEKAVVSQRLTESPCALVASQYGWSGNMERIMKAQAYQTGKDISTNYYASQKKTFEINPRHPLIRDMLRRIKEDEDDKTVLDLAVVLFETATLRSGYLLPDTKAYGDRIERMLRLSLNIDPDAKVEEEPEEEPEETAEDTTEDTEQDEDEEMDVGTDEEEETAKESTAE

B1: anti-GRP94 human IgG antibody B5 (antibody, V domains shown)
VH: EVQLLESGGGLVQPGGSLRLSCAASGFTFSNYYMSWVRQAPGKGLEWVSGIYPNSGSTYYADSVKGRFTISRDNSKNTLYLQMNSLRAEDTAVYYCARDPLHPARFPFDYWGQGTLVTVSS
VL: QSVLTQPPSASGTPGQRVTISCTGSSSNIGNNAVSWYQQLPGTAPKLLIYADSHRPSGVPDRFSGSKSGTSASLAISGLRSEDEADYYCGAWDASLNAYVFGGGTKLTVL
notes: Tested as whole human IgG made from the selected scFv's VH and VL genes in pcDNA3.1 / Expi293 cells; also called GRP94 IgG B5
Recombinant human GRP94 [1]
  Kd: 0.467 nM

B2: anti-GRP94 human IgG antibody 3G7 (antibody, V domains shown)
VH: EVQLLESGGGLVQPGGSLRLSCAASGFTFSNYSMSWVRQAPGKGLEWVSGIYYGSGNKYYADSVKGRFTISRDNSKNTLYLQMNSLRAEDTAVYYCAKNLASFDYWGQGTLVTVSS
VL: QSVLTQPPSASGTPGQRVTISCSGSSSNIGSNSVNWYQQLPGTAPKLLIYSNSHRPSGVPDRFSGSKSGTSASLAISGLRSEDEADYYCGTWDSSLSGYVFGGGTKLTVL
notes: Tested as whole human IgG; also called GRP94 IgG 3G7
Recombinant human GRP94 [2]
  Kd: 1.21 nM

B3: anti-GRP94 human IgG antibody E5 (antibody, V domains shown)
VH: EVQLLESGGGLVQPGGSLRLSCAASGFTFSNYAMSWVRQAPGKGLEWVSGISSSSGSTYYADSVKGRFTTSRDNSKNTLYLQMNSLRAEDTAVYYCARDRHPFSPNWFDYWGQGTLVTVSS
VL: QSVLTQPPSASGTPGQRVTISCSGSPSNIGSNTVTWYQQLPGTAPKLLIYADSHRPSGVPDRFSGSKSGTSASLAISGLRSEDEADYYCASWDDSLNGYVFGGGTKLTVL
notes: Tested as whole human IgG; also called GRP94 IgG E5
Recombinant human GRP94 [3]
  Kd: 0.0997 nM

B4: anti-GRP94 human IgG antibody 2H5 (antibody, V domains shown)
VH: EVQLLESGGGLVQPGGSLRLSCAASGFTFSGYAMSWVRQAPGKGLEWVSAISHGGSSKYYADSVKGRFTISRDNSKNTLYLQMNSLRAEDTAVYYCAKDLLSPLQSIGSYDDAMDVWGQGTLVTVSS
VL: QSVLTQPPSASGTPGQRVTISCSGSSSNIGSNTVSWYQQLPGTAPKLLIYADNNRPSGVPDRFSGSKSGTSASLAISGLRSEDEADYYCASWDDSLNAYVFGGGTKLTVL
notes: Tested as whole human IgG; also called GRP94 IgG 2H5
Recombinant human GRP94 [4]
  Kd: 0.142 nM
